T1: hpIgR domain-1 with teleost fish CDR2 (hD1 tCDR2) (human, UniProt P01833 19-127, limits assumed)
T1 construct: CDR-swapped hpIgR domain-1 mutant, HIS-tagged, made in HEK293 cells; not shown: HIS tag
T1 chain: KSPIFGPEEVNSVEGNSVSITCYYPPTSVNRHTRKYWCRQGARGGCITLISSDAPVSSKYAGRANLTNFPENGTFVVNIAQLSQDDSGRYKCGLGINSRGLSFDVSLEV

T2: hpIgR_D3
T2 construct: HIS-tagged construct from HEK293 cells; also called human pIgR extracellular domain 3 (D3); hD3
T2 HIS-tagged domain construct: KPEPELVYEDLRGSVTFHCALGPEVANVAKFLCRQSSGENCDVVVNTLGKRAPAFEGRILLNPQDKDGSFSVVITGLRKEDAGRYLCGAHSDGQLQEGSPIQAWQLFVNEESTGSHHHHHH

T3: hpIgR_D2-D3
T3 construct: HIS-tagged construct from HEK293 cells; also called human pIgR extracellular domain 2-domain 3 (D2-D3); hD2-D3
T3 HIS-tagged domain construct: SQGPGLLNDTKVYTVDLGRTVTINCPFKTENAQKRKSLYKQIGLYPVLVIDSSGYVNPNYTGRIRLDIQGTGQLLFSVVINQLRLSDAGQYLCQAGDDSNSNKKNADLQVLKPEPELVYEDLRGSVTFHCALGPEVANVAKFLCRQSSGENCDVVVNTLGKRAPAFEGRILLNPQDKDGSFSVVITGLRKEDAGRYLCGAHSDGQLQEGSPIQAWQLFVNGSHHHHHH

B1: VHH2-linker-mono-Fc protein (Fc fusion)
chain: EVQVVESGGGLVQAGGSLKLACAAPGLTFSSYRMGWFRQAPGQEREFVAAIDWNGRGTYYRYYADSVKGRSTISRDNAKNTVYLQMNSLKPEDTAVYYCAATTVLTDPRVLNEYATWGQGTQVTVSSEPKTPKPQPQPQLQPQPNPTTESKSPKSPAPELLGGPSVFLFPPKPKDTLMISRTPEVTCVVVDVSHEDPEVKFNWYVDGVEVHNAKTKPREEQYNSTYRVVSVLTVLHQDWLNGKEYKCKVSNKALPAPIEKTISKAKGQPREPQVYTKPPSREEMTKNQVSLSCLVKGFYPSDIAVEWESNGQPENNYKTTVPVLDSDGSFRLASYLTVDKSRWQQGNVFSCSVMHEALHNHYTQKSLSLSPGK
notes: also called VHH2-mono-Fc; mpIgR_338
B2: VHH3-linker-mono-Fc protein (Fc fusion)
chain: QLQLVESGGGLVQPGGSLRLSCAASGSIFSINVMGWYRQAPGKQRELVARINGGGITHYAESVKGRFTISRDNAKNTVYLQMNSLKPEDTAAYYCKADVFGSSGYVETYWGQGTQVTVSSEPKTPKPQPQPQLQPQPNPTTESKSPKSPAPELLGGPSVFLFPPKPKDTLMISRTPEVTCVVVDVSHEDPEVKFNWYVDGVEVHNAKTKPREEQYNSTYRVVSVLTVLHQDWLNGKEYKCKVSNKALPAPIEKTISKAKGQPREPQVYTKPPSREEMTKNQVSLSCLVKGFYPSDIAVEWESNGQPENNYKTTVPVLDSDGSFRLASYLTVDKSRWQQGNVFSCSVMHEALHNHYTQKSLSLSPGK
notes: made in CHO cells; also called VHH3-mono-Fc; hpIgR_021

How the values were obtained:
[1] = biological target: T4, human pIgR, full-length, on cells (human, UniProt P01833 19-764); assay: cell-based or functional assay
[2] = biological target: T5, human pIgR extracellular domain (ECD) (human, UniProt P01833 19-638); assay: BLI, relative to full-length hpIgR ECD
T5 construct: also called hpIgR ECD
Experimental: (§1) Bio-layer Interferometry was performed as follows. […] Data were collected with Octet Data Acquisition version 7.1.0.87 (ForteBio) and analyzed using Octet Data Analysis version 7.1 (ForteBio). To measure binding kinetics between VHH-mono-Fc molecules and HIS-tagged pIgR proteins, VHH-mono-Fc was immobilized on amine-reactive generation-2 (ARG2) biosensors according to manufacturer's instructions and increasing concentrations of pIgR proteins were exposed to sensor-immobilized VHH. In some cases, HIS-tagged pIgR proteins were immobilized on anti-HIS biosensors and exposed to increasing concentrations of VHH-mono-Fc molecules. Association and dissociation rates were measured by the shift in wavelength (nm). […] All reactions were performed at 25° C. in PBS.
(§2) (Full-length hpIgR ECD was purchased from R&D Systems.) The five constructs (D1-D2, D1, D1_tCDR1, D1_tCDR2, D1_tCDR3) were expressed and purified from HEK293 cells using immobilized metal ion affinity chromatography. Three hpIgR domain-1 CDR mutants (D1_tCDR1, D1_tCDR2, D1_tCDR3) contain respective teleost fish CDR on a hpIgR domain-1 framework. His-tagged pIgR constructs were immobilized on anti-HIS biosensors and binding of VHH-mono-Fc molecules to pIgR constructs were measured by bio-layer interferometry.

[3] = biological target: T6, human pIgR extracellular domain 1 (D1) (human, UniProt P01833 19-127); assay: BLI, relative to full-length hpIgR ECD
T6 construct: HIS-tagged construct made in HEK293 cells; also called hpIgR domain-1
Target sequence in this assay (P01833 other isoform, or with tags, fused parts or gaps limits assumed): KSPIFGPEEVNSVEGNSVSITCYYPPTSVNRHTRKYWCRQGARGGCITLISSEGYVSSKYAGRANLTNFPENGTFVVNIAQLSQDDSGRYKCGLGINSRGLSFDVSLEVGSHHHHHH
Experimental: as §1, §2

[4] = biological target: T7, human pIgR extracellular domain 1-domain 2 (D1-D2) (human, UniProt P01833 19-240); assay: BLI, relative to full-length hpIgR ECD
T7 construct: HIS-tagged construct made in HEK293 cells
Target sequence in this assay (P01833 other isoform, or with tags, fused parts or gaps limits assumed): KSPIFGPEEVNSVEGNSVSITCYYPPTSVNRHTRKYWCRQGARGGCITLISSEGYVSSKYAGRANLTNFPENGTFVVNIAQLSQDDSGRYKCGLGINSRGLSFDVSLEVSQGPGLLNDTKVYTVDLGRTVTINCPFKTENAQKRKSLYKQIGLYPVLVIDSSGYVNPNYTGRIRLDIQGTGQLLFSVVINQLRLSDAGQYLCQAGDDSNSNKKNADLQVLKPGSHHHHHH
Experimental: as §1, §2

[5] = biological target: T8, hpIgR domain-1 with teleost fish CDR1 (hD1 tCDR1) (human, UniProt P01833 19-127, limits assumed); assay: BLI, relative to full-length hpIgR ECD
T8 construct: CDR-swapped hpIgR domain-1 mutant, HIS-tagged, made in HEK293 cells; not shown: HIS tag
Target sequence in this assay (P01833 other isoform, or with tags, fused parts or gaps limits assumed): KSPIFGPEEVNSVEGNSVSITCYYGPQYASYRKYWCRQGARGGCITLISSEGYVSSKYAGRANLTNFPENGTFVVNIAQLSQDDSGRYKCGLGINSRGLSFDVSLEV

[6] = biological target: T9, hpIgR domain-1 with teleost fish CDR3 (hD1 tCDR3) (human, UniProt P01833 19-127, limits assumed); assay: BLI, relative to full-length hpIgR ECD
T9 construct: CDR-swapped hpIgR domain-1 mutant, HIS-tagged, made in HEK293 cells; not shown: HIS tag
Target sequence in this assay (P01833 other isoform, or with tags, fused parts or gaps limits assumed): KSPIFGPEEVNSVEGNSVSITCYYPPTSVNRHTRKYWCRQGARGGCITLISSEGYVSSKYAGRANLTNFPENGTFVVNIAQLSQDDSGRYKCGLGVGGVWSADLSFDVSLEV

[7] = biological target: T5, human pIgR extracellular domain (ECD); assay: BLI (Octet), VHH-mono-Fc and hpIgR ectodomain
[8] = biological target: T1, hpIgR domain-1 with teleost fish CDR2 …; assay: BLI, HIS-tagged construct on anti-HIS biosensors
Experimental: as §1, §2

[9] = biological target: T6, human pIgR extracellular domain 1 (D1); assay: ratio of the second to the first EC50 column
[10] = biological target: T7, human pIgR extracellular domain …; assay: ratio of the second to the first EC50 column
[11] = biological target: T6, human pIgR extracellular domain 1 (D1); assay: BLI, HIS-tagged pIgR construct on anti-HIS biosensors
Experimental: as §1, §2

[12] = biological target: T7, human pIgR extracellular domain …; assay: as above
Experimental: as §1, §2

[13] = biological target: T8, hpIgR domain-1 with teleost fish CDR1 …; assay: as above
Experimental: as §1, §2

[14] = biological target: T9, hpIgR domain-1 with teleost fish CDR3 …; assay: as above
Experimental: as §1, §2

[15] = biological target: T5, human pIgR extracellular domain (ECD); assay: ECL (MSD), anti-VHH detection against anti-Fc detection
Experimental: To check whether VHH recognizes a buried epitope on pIgR, EC₅₀ values were measured for VHH-mono-Fc molecules binding to hpIgR-ECD protein by electrochemiluminescence using two different detection antibodies, an anti-Fc antibody and an anti-VHH antibody. pIgR ECD (10 μg/ml in PBS) was coated on high-bind MSD plates for 2 hours at RT with 1000 rpm, incubated with blocking buffer for 1 hour at RT, incubated with VHH-mono-Fc molecules (increasing concentrations in PBS) for 2 hours at RT with 1000 rpm, washed 3× with PBT, incubated with ruthenylated secondary antibody (2 μg/ml in PBS) for 1 hour at RT with 1000 rpm, washed 3× with PBT and read plates in 40 ul reading buffer using the MSD imager. EC50 was calculated by fitting log VHH concentration versus log ECLU in Prism (Graphpad). The increase in EC₅₀ (>50-fold) due to anti-VHH detection was used as a measure to determine whether VHH recognized buried epitope on pIgR.

[16] = biological target: T4, human pIgR, full-length, on cells; assay: flow cytometry on MDCK-hpIgR cells; summary table, repeats Table 1
Experimental: Flow Cytometry was performed as follows. To test whether VHH-mono-Fc molecules recognize cell-surface hpIgR, Madin-Darby canine kidney (MDCK) cells engineered to express full-length hpIgR were used. Cells were cultured in Dulbecco's modified Eagle's medium containing 10% fetal calf serum at 37° C. with 5% CO₂. Cells were split into equal fractions (≈70,000 cells) and incubated with increasing concentrations of VHH-mono-Fc molecules for 30 min at 4 C. […] Cells were washed twice with cold staining buffer, resuspended in running buffer and analyzed with an iQue Screener (IntelliCyt Corporation). Binding was assessed by RL1 (A647) Geomeans from the live cell population and EC50 was calculated by fitting log VHH concentration versus MFI in Prism (Graphpad).

[17] = biological target: T6, human pIgR extracellular domain 1 (D1); assay: ECL (MSD), Log ECLU against Log [VHH] nM, anti-Fc detection (first EC50 column)
[18] = biological target: T7, human pIgR extracellular domain …; assay: as above
hpIgR_D3 = biological target: T2, hpIgR_D3; assay: ECL (MSD) heat map, HIS-tagged construct captured via anti-HIS, anti-human-Fc detection;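 further: VHH-mono-Fc molecules tested at 100 µg/ml for 2 h on captured His-tagged pIgR constructs (10 µg/ml), read-out as electrochemiluminescence units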
Experimental: (§3) A meso-scale discovery (MSD) platform was used for conducting epitope mapping and epitope burial studies. To test the binding of VHH-mono-Fc molecules to purified pIgR protein constructs, Streptavidin MSD plates were coated with a biotinylated anti-HIS antibody (2 μg/ml in PBS) for 1 hour at RT with 1000 rpm, washed 3× with PBT (PBS+0.1% Tween-20), incubated with blocking buffer for 1 hour at RT, incubated with His-tagged pIgR proteins (10 μg/ml in PBS) for 2 hours at RT with 1000 rpm, washed 3× with PBT, incubated with VHH-mono-Fc molecules (100 μg/ml in PBS) for 2 hours at RT with 1000 rpm, washed 3× with PBT, incubated with ruthenylated-anti-human-Fc antibody (2 μg/ml in PBS) for 1 hour at RT with 1000 rpm, washed 3× with PBT and read plates in 40 ul reading buffer using the MSD imager. ECLU values were plotted as a heatmap.
(§4) Binding of VHH-mFc molecules were tested to immobilized pIgR constructs by the electrochemiluminescence method.

[19] = biological target: T10, human pIgR extracellular domain 2 (D2) (human, UniProt P01833 128-242); assay: as above
T10 construct: HIS-tagged construct made in HEK293 cells; also called hpIgR domain 2
Experimental: as §3, §4

[20] = biological target: T11, human pIgR extracellular domain 5 (D5) (human, UniProt P01833 460-565); assay: as above
T11 construct: HIS-tagged construct made in HEK293 cells; also called hpIgR domain 5
Experimental: as §3, §4

hpIgR_D2-D3 = biological target: T3, hpIgR_D2-D3; assay: as above

T4 sequence (P01833 19-764): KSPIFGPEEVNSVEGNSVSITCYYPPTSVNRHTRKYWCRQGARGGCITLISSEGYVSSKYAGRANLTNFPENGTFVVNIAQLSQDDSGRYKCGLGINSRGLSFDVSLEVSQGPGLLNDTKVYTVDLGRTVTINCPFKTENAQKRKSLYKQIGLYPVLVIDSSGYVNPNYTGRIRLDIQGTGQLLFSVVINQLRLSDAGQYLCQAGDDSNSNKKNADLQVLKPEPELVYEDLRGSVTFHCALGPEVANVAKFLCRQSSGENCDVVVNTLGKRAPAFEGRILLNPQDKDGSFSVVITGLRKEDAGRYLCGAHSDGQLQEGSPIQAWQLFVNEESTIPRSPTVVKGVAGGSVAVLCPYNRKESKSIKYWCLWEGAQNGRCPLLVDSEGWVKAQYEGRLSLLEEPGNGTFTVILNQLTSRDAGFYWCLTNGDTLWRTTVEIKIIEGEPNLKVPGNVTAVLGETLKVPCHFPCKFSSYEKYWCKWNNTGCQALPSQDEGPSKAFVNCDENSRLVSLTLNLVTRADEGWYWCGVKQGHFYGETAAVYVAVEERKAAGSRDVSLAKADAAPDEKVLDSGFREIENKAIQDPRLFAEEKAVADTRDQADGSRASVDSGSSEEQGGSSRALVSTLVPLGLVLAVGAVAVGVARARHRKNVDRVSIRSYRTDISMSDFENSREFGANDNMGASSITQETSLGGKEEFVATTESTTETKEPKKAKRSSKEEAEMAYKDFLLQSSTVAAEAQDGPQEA
T5 sequence (P01833 other isoform, or with tags, fused parts or gaps): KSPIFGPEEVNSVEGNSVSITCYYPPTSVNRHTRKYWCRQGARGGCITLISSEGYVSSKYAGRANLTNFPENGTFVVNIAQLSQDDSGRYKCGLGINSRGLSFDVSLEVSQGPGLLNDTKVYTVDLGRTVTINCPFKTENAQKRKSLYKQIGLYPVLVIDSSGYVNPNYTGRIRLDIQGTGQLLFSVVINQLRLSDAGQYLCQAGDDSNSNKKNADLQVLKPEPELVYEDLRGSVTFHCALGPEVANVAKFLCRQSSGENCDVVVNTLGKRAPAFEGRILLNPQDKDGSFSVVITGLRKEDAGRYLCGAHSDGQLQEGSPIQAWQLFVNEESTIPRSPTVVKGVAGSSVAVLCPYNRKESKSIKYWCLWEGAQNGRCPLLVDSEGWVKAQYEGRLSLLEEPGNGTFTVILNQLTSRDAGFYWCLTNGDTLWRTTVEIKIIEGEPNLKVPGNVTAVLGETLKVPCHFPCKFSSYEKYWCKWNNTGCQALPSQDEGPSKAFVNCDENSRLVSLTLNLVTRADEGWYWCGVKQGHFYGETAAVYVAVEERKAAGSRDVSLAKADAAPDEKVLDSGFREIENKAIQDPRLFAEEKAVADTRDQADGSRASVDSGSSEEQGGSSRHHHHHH
T11 sequence (P01833 other isoform, or with tags, fused parts or gaps limits assumed): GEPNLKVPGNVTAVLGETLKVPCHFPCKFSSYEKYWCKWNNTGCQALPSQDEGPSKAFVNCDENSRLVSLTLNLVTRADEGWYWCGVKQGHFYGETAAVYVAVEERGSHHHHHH

Row | Binder | Transcytosis (Fold Incr.) [1] | Fold change in KD [2] | Fold change in KD [3] | Fold change in KD [4] | Fold change in KD [5] | Fold change in KD [6] | Kd [7] | binding result [8] | Fold change [9] | Fold change [10] | Kd [11] | Kd [12] | Kd [13] | Kd [14] | Fold change in EC50 [15] | EC50 [16] | EC50 [17] | EC50 [18] | binding result (hpIgR_D3) | binding result [19] | also measured
1 | B1 | 34.2 fold | 1 fold | 0.7 fold | 1 fold | 1 fold | 0.7 fold | 21 nM | no binding | 1.2 | 1.2 | 15.5 nM | 23 nM | 21.3 nM | 14.9 nM | 1 fold | 6.3 nM | 6.8 nM | 1.5 nM | no binding (tested: 100 ug/ml (single concentration)) | no binding (tested: 100 ug/ml (single concentration)) | binding result [20]: no binding (tested: 100 ug/ml (single concentration)); binding result (hpIgR_D2-D3): no binding (tested: 100 ug/ml (single concentration))
2 | B2 | 2.6 fold | 1 fold | 0.8 fold | 1.3 fold | 7.7 fold | 0.8 fold | 5 nM | no binding | 5.7 | 11.9 | 7.7 nM | 13.3 nM | 77 nM | 7.5 nM | 54 fold | 6.4 nM | 3.1 nM | 1.2 nM | no binding (tested: 100 ug/ml (single concentration)) | no binding (tested: 100 ug/ml (single concentration)) | binding result [20]: no binding (tested: 100 ug/ml (single concentration)); binding result (hpIgR_D2-D3): no binding (tested: 100 ug/ml (single concentration))
